The values that follow are results of earlier work, collected in article PMC4366142.

This series deals with muscle voltage-gated sodium channel (UniProt P15390).
Chain of UniProt P15390 (P15390 whole entry): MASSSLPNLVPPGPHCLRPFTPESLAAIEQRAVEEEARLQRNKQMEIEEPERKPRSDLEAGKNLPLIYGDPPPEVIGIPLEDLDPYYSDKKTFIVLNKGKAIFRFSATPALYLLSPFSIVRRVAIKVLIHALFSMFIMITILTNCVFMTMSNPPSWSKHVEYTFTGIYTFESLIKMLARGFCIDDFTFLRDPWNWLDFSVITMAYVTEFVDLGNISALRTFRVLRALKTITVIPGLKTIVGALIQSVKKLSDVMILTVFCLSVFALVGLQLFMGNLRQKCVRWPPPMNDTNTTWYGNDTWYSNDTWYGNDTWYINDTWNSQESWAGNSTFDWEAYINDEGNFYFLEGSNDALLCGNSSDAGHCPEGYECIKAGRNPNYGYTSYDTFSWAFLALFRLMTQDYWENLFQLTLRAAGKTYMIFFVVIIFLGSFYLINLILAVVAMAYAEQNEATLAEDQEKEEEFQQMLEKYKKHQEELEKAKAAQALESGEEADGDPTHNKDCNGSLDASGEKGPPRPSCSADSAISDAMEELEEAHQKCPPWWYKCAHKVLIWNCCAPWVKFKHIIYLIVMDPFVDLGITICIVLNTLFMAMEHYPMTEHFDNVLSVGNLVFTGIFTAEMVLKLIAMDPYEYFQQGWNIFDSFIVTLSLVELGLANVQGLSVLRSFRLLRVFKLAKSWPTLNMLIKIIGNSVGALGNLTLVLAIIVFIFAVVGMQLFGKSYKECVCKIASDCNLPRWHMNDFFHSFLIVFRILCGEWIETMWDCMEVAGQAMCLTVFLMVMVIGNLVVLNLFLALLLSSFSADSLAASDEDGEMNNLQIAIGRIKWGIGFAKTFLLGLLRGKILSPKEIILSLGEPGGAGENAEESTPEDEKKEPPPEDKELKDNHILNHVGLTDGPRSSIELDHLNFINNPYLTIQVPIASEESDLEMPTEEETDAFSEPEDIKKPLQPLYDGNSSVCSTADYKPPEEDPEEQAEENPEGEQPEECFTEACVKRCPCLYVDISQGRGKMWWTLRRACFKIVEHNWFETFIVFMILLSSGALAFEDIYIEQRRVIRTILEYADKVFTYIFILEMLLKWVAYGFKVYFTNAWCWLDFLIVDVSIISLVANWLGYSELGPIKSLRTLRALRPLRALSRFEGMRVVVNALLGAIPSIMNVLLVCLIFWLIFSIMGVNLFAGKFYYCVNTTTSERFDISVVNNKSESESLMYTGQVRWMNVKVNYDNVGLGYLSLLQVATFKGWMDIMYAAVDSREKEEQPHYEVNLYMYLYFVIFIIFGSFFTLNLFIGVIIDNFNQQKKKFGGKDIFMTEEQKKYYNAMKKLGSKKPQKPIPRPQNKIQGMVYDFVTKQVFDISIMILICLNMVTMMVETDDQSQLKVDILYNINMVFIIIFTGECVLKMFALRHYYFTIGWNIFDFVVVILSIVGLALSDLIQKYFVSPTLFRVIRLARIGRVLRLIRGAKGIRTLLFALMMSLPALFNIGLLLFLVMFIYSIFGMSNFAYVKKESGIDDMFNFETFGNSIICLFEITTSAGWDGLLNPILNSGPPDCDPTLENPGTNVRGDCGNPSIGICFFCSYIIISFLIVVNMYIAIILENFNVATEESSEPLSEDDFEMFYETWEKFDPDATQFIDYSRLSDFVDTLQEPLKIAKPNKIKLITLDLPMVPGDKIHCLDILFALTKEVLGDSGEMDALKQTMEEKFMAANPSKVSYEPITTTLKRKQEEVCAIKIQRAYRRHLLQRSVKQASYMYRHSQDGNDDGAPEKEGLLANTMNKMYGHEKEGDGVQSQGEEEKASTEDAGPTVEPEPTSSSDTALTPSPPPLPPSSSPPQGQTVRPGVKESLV

In general, Kd refers to a measure of binding affinity in units of concentration. Take μ-conotoxin GIIIA (from UniProt P01523): the equilibrium dissociation constant (Kd) is 25 nM.
